Reference: patent US20220332795A1 (ARO BIOTHERAPEUTICS, published 2022)
Numbering of substitutions follows the chain as printed.

B1: SEQ ID NO 78 (designed binder, not shown: small tags and cut ends)
chain: MLPAPKNLVVSRVTEDSARLSWTAPDAAFDSFGIGYYEHKRFGEAIQLSVPGSERSYDLTGLKPGTEYEVDIEGVKGGVLSWPLFAEFTT
notes: FN3 domain, hit of the apical domain panning
B2: SEQ ID NO 93 (designed binder, not shown: small tags and cut ends)
chain: MLPAPKNLVVSRVTEDSARLSWTAPDAAFDSFAIEYYEPVPAGEAIYLDVPGSERSYDLTGLKPGTEYDVTIYGVKGGYYSHPLFASFTT
notes: as for B1
B3: SEQ ID NO 97 (designed binder, not shown: small tags and cut ends)
chain: MLPAPKNLVVSRVTEDSARLSWTAPDAAFDSFHIWYEEETTIGEAIYLHVPGSERSYDLTGLKPGTEYEVHITGVKGGPYSRPLFANFTT
notes: as for B1
B4: SEQ ID NO 87 (designed binder, not shown: small tags and cut ends)
chain: MLPAPKNLVVSRVTEDSARLSWTAPDAAFDSFAIEYTEFLYSGEAIVLTVPGSERSYDLTGLKPGTEYGVPINGVKGGFVSPPLSAIVTT
notes: as for B1
B5: SEQ ID NO 80 (designed binder, not shown: small tags and cut ends)
chain: MLPAPKNLVVSRVTEDSARLSWTAPDAAFDSFWIDYEEEGVIGEAIYLHVPGSERSYDLTGLKPGTEYVVKIHGVKGGHPSHPLVAVFTT
notes: as for B1
B6: SEQ ID NO 96 (designed binder, not shown: small tags and cut ends)
chain: MSLPAPKNLVVSRVTEDSARLSWTAPDAAFDSFPIAYLEVFYEGEAIVLTVPGSERSYDLTGLKPGTEYQVPIEGVKGGAMSLPLSAIFTT
notes: as for B1
B7: SEQ ID NO 75 (designed binder, not shown: small tags and cut ends)
chain: MLPAPKNLVVSRVTEDSARLSWTAPDAAFDSFTISYGEEALIGEAIYLRVPGSERSYDLTGLKPGTEYYVHIEGVKGGSWSQPLAAAFTT
notes: as for B1
B8: SEQ ID NO 90 (designed binder, not shown: small tags and cut ends)
chain: MLPAPKNLVVSRVTEDSARLSWQGVARAFDSFLITYREQIFAGEVIVLTVPGSERSYDLTGLKPGTEYPVWIQGVKGGSPSAEFTT
notes: as for B1
B9: SEQ ID NO 98 (designed binder, not shown: small tags and cut ends)
chain: MLPAPKNLVVSRVTEDSARLSWTAPDAAFDSFGIAYDEWPEFGEAIVLTVPGSERSYDLTGLKPDTEYIVEIYGVKGGWFSWPLSAIFTT
notes: as for B1
B10: SEQ ID NO 74 (designed binder, not shown: small tags and cut ends)
chain: MLPAPKNLVVSRVTEDSARLSWTAPDAAFDSFSITYLEWWNLGEAIVLTVPGSERSYDLTGLKPGTEYMVTIPGVKGGMSSYPLSAIFTT
notes: as for B1
B11: SEQ ID NO 10 (designed binder, not shown: small tags and cut ends)
chain: MLPAPKNLVVSRVTEDSARLSWTAPDAAFDSFKIAYIETATRGEAIVLTVPGSERSYDLTGLKPGTEYVVPIPGVKGGNTSSPLSAIFTT
notes: as for B1
B12: SEQ ID NO 3 (designed binder, not shown: small tags and cut ends)
chain: B11 chain with K33N, A35E, I37A, A40R, T41W, R42Y, P73D, N79I, T80A, S82K
notes: as for B1
B13: SEQ ID NO 79 (designed binder, not shown: small tags and cut ends)
chain: B4 chain with A33V, F39R, L40F, Y41W, G69S, N73D, F79Q, V80C, P82T, V88F
notes: as for B1
B14: SEQ ID NO 89 (designed binder, not shown: small tags and cut ends)
chain: MLPAPENLVVSRVTEDSARLSWTAPDAAFDSFWIEYYEGVIQGEAIVLTVPGSERSYDLTGLKPGTEYFVAIWGVKGGKWSVPLSAIFTT
notes: as for B1
B15: SEQ ID NO 91 (designed binder, not shown: small tags and cut ends)
chain: MLPAPKNLVVSRVTEDSARLSWTAPDAAFDSFQIHYWETQGFGEAIVLTVPGSERSYDLTGLKPGTEYPVLIPGVKGGPSSLPLSAIFTT
notes: as for B1

Target: T1, recombinant biotinylated CD71 extracellular domain (Sino Biologics) with an N-terminal 6His tag (human, UniProt P02786 89-760, biotinylated (site not stated))
T1 construct: extracellular domain; also called hCD71; huCD71 ECD
T1 sequence (P02786 other isoform, or with tags, fused parts or gaps): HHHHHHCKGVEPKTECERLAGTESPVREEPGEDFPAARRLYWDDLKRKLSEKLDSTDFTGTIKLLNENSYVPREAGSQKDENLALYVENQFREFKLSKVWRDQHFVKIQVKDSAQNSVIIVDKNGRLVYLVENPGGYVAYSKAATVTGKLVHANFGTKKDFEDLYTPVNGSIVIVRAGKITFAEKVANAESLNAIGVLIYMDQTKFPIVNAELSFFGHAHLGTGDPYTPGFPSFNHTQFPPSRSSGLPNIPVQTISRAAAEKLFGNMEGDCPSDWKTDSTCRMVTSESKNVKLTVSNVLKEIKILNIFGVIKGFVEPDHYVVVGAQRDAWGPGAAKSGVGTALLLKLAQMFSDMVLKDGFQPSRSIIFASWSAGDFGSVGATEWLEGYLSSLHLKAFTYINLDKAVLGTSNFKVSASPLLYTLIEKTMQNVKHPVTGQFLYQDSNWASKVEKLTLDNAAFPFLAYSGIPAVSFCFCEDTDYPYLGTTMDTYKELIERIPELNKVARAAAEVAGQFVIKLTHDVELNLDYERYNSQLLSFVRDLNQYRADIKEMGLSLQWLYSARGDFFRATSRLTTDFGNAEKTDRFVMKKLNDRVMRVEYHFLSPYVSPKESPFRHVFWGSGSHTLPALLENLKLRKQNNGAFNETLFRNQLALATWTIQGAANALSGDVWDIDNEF
Assay: primary solution ELISA screen

Binder | RLU
B1 | 271000 RLU
B2 | 430000 RLU
B3 | 957000 RLU
B4 | 282000 RLU
B5 | 844000 RLU
B6 | 726000 RLU
B7 | 530000 RLU
B8 | 564000 RLU
B9 | 1.31e+06 RLU
B10 | 824000 RLU
B11 | 788000 RLU
B12 | 687000 RLU
B13 | 273000 RLU
B14 | 919000 RLU
B15 | 491000 RLU

Target: T1, recombinant biotinylated CD71 …
Assay: primary solution ELISA screen, signal on hCD71 over HSA

Binder | hCD71:HSA
B1 | 29
B2 | 91
B3 | 147
B4 | 77
B5 | 25
B6 | 48
B7 | 143
B8 | 46
B9 | 117
B10 | 56
B11 | 27
B12 | 69
B13 | 46
B14 | 141
B15 | 74
